± gives the uncertainty stated by the source.

The series is described as follows: amyloid nucleation score (Sup35N fusion, yeast selection) (log enrichment); library NNK1; higher = more nucleation; inactive = no reads after selection. In short, it runs like this: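 On medium lacking adenine and uracil, psi-negative yeast expressing peptides of 20 random codons fused to Sup35N were grown 7 days at 30°C after a 24-hour induction with 100 μM copper sulfate. Illumina sequencing of input and output plasmid inserts gave the reads, and sequences under 100 input reads were excluded. The nucleation score is the DiMSum log enrichment of output over input reads, centred on the mode score of non-aggregating sequences.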

Regarding SRFKTDYTG, the amyloid nucleation score is -0.492 ± 0.68.

VMCQCYSGGM showed an amyloid nucleation score of 1.31 ± 0.4.

In the case of SYVPANY, the amyloid nucleation score is -1.82 ± 1.1.

LFIKVLLGFF registered an amyloid nucleation score of 0.32 ± 0.45.

Regarding QISVGTYWFANWCGIILNQV, the amyloid nucleation score turned out to be 1.99 ± 0.28.

PWCTGRLTGSNCKVYWITRS showed an amyloid nucleation score of 0.515 ± 0.36.

With VVQFKMWACQTFFMDLRNTM, the amyloid nucleation score was 1.56 ± 0.11.

In the case of LLIEWRLDSGWCTTGSENRD, the amyloid nucleation score is -0.347 ± 0.4.

The substance LWSLDSDSCKVLGDSGCGFF gave an amyloid nucleation score of 0.133 ± 0.34.

The substance RFLSVISDKTIAYWPSDVVS gave an amyloid nucleation score of 0.377 ± 0.99.

In the case of GVDMRYFGPYAGYADYSKSR, the amyloid nucleation score was -0.846 ± 0.44.

Regarding SELIAQDMPQIENLTVDAAW, the amyloid nucleation score was -0.38 ± 0.35.

In turn, DSMYF registered an amyloid nucleation score of 0.367 ± 0.53.

Consider GEGICL, for which the amyloid nucleation score is -0.012 ± 1.1.

Turning to ELGYSTHCIMS, the amyloid nucleation score was -0.735 ± 0.66.

The substance FFGLFQLETWA gave an amyloid nucleation score of 0.02 ± 0.37.

As to SSGHSVRVDNKTGVWVWPVG, the amyloid nucleation score was -0.329 ± 1.6.

MPAWFILGDVVL yielded an amyloid nucleation score of 1.2 ± 0.35.

Turning to LHRRSDNGESFWTEGSITFV, the amyloid nucleation score was -0.086 ± 0.25.

IQFPRLGGDTTVCDYGHVAI showed an amyloid nucleation score of 1.32 ± 0.49.

SNSFYREVNWGNRT displayed an amyloid nucleation score of 0.216 ± 0.57.

LLPRGESHVKLKDRGSRMPW: the amyloid nucleation score was found to be 0.921 ± 0.5.

Substance RFVRYQSQHFHKLNSWWGCL displayed an amyloid nucleation score of 0.135 ± 0.39.

The substance TDNMWCSNVIFLECTN yielded an amyloid nucleation score of 4.07 ± 0.12.

Consider DAYTGCIDNSVANAG, for which the amyloid nucleation score was found to be 0.481 ± 0.6.

On to SVTVM, for which the amyloid nucleation score stood at 1.74 ± 0.49.

ILTFQSCRRFACKAFMFRRR returned an amyloid nucleation score of 2.07 ± 0.16.

Take SNSSLECYCMNVVRFHLGLS: the amyloid nucleation score came out at 0.735 ± 0.18.

Turning to SIDGWNSKVKGFEFRMGGT, the amyloid nucleation score was -0.045 ± 0.32.

The substance LIYYNLIGHRVSWGEVGYFV had an amyloid nucleation score of 0.014 ± 0.35.

With ANMHRVKAYCHIFGLSHETE, the amyloid nucleation score is -0.775 ± 0.73.

With SQVLGSLLFRSPRVWICVAG, the amyloid nucleation score is -0.969 ± 2.1.

On to AMLKDRNMLADYFHGVILGA, for which the amyloid nucleation score entry was “inactive”.

The substance LDDAWRVWMHSL returned an amyloid nucleation score of 0.981 ± 0.43.

Take GNSRQYAFNRQIHMSSGESR: the amyloid nucleation score was -0.535 ± 0.66.

The substance GPWAGVRVRSTCLVRYSWYG showed an amyloid nucleation score of 0.242 ± 0.44.

In turn, DAGGYLQEIARTPFTVARQQ had an amyloid nucleation score of 0.195 ± 0.35.

Substance HVHWPLLNNAYAS yielded an amyloid nucleation score of 0.867 ± 0.93.

In the case of RWNFFTFWFLW, the amyloid nucleation score amounted to 0.048 ± 0.46.

Turning to EFDTQSCQVDTVAVYIEPSL, the amyloid nucleation score is 0.793 ± 0.65.

As to FYFLKDY, the amyloid nucleation score is -0.763 ± 0.3.

Take FSFYLYGGSC: the amyloid nucleation score was -1.47 ± 2.4.

Regarding IYYTSWYINAYLCGHMPVRG, the amyloid nucleation score turned out to be 2.52 ± 0.23.

For MEVISRSVLSSLSWFGTVEE, the amyloid nucleation score was determined as 0.598 ± 0.5.

PRLYGISRKSYVLSIFDVVS showed an amyloid nucleation score of 0.245 ± 0.21.

As to GSTRYHAKMDPGWVRFT, the amyloid nucleation score is -0.482 ± 1.7.

With MRGTSEFYLVRGRYTCISRG, the amyloid nucleation score is -0.292 ± 0.45.

The substance RWGDHKQC yielded an amyloid nucleation score of 0.041 ± 0.41.

With TGTSSPMRPLH, the amyloid nucleation score was determined as 0.532 ± 0.69.

In turn, GCKGGSATCSTRTWMCSWGG returned an amyloid nucleation score of 2.27 ± 0.12.

On to FDNTGDCTNFYQLSDWSP, for which the amyloid nucleation score came out at 1.05 ± 0.22.

As for HWCYVLNS, the amyloid nucleation score result was “inactive”.

In turn, FGRVRCLESEICSCGFFVDE yielded an amyloid nucleation score of 3.03 ± 0.15.

As for GRGVLSSPSALGRFSLTEGM, the amyloid nucleation score was -0.444 ± 0.44.

RYLDSLYKPRYYYQMVAIYG had an amyloid nucleation score of 0.004 ± 0.41.

Take LMNFSNWDELR: the amyloid nucleation score is -1.26 ± 2.4.

LYFGNTGKGNFRQVSRLKHS: the amyloid nucleation score turned out to be 0.116 ± 0.73.

On to DRRFFSSV, for which the amyloid nucleation score is -1.36 ± 1.

Values taken from the supplement of paper PMC12042874.
